{
  "source": "patent US20040018199A1",
  "key": {"[1]": {"target": "Cadherin 11 (human) (UniProt P55287)", "sequence (P55287 154-796 limits assumed, form in doubt)": "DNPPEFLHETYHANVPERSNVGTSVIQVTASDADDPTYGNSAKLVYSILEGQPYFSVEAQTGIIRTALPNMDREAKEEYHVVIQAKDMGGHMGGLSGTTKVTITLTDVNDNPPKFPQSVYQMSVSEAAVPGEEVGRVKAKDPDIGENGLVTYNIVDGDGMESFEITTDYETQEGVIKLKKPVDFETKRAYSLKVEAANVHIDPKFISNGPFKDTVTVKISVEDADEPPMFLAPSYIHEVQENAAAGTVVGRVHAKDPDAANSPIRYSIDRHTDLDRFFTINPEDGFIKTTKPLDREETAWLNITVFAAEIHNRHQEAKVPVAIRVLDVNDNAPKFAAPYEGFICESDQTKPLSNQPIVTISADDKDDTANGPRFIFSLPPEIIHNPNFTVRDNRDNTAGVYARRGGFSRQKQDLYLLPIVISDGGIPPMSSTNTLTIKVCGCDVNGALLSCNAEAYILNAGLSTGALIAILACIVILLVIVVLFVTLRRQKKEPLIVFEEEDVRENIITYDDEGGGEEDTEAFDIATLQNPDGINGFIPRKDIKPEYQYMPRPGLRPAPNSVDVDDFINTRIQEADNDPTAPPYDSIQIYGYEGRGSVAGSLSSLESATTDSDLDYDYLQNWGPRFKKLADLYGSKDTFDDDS", "assay": "yeast two-hybrid (PathCalling)"}, "[2]": {"target": "Prey 2832217 protein (C11orf15 protein) (human) (UniProt Q9NQ34)", "sequence (Q9NQ34 35-167 limits assumed, form in doubt)": "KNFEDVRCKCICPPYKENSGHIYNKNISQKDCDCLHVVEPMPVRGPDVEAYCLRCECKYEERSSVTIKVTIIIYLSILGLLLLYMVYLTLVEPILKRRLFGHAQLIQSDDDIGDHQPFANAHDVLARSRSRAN", "assay": "yeast two-hybrid (PathCalling)"}, "[3]": {"target": "Lumican (human) (UniProt P51884)", "sequence (P51884 217-338 limits assumed, form in doubt)": "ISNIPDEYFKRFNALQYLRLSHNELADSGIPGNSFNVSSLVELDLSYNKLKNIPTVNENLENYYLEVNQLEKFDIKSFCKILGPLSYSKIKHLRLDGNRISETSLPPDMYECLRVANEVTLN", "assay": "yeast two-hybrid (PathCalling); forty-eight independent experiments"}},
  "data": [
    {"substance": "CG54020 (EPHA8), ephrin type-A receptor 8 (from UniProt P29322 28-207)", "values": [
      {"measurement": "interaction rating score", "setting": "[1]", "value": 2.7},
      {"measurement": "interaction rating score", "setting": "[2]", "value": 9.6},
      {"measurement": "interaction rating score", "setting": "[3]", "value": 9.99}
    ]}
  ]
}
